The values below come from patent US20180371095A1.

This assay concerns the target recombinant human VSIG4 (rhVSIG4), construct not stated (human) (UniProt Q9Y279). Put plainly: ELISA, soluble rhVSIG4 coated, streptavidin-HRP detection, background corrected.

In the case of “biotinylated rhSIGLEC-7 (from UniProt Q9Y286 19-357) (ligand)”, the absorbance at 452 nm was determined as 2.3 absorbance.
